Assays:
[1] = molecular target: Soluble cation-independent mannose 6-phosphate receptor (CI-MPR) purified from fetal bovine serum, coupled to Affigel-15 beads (CI-MPR column) (bovine (fetal bovine serum)) (UniProt P08169); assay: CI-MPR column fractionation, beta-glucuronidase activity (FIG. 6)
[2] = molecular target: Soluble cation-independent mannose 6-phosphate receptor (CI-MPR) purified from fetal bovine serum, coupled to Affigel-15 beads (CI-MPR column) (bovine (fetal bovine serum)) (UniProt P08169); assay: CI-MPR column fractionation; enzyme activity of fraction (starting material 1.41)
[3] = molecular target: Soluble cation-independent mannose 6-phosphate receptor (CI-MPR) purified from fetal bovine serum, coupled to Affigel-15 beads (CI-MPR column) (bovine (fetal bovine serum)) (UniProt P08169); assay: CI-MPR column fractionation; enzyme activity of fraction eluted with 5 mM M6P (starting material 1.41)

Sequence of UniProt P08169 (P08169 45-2313 limits assumed): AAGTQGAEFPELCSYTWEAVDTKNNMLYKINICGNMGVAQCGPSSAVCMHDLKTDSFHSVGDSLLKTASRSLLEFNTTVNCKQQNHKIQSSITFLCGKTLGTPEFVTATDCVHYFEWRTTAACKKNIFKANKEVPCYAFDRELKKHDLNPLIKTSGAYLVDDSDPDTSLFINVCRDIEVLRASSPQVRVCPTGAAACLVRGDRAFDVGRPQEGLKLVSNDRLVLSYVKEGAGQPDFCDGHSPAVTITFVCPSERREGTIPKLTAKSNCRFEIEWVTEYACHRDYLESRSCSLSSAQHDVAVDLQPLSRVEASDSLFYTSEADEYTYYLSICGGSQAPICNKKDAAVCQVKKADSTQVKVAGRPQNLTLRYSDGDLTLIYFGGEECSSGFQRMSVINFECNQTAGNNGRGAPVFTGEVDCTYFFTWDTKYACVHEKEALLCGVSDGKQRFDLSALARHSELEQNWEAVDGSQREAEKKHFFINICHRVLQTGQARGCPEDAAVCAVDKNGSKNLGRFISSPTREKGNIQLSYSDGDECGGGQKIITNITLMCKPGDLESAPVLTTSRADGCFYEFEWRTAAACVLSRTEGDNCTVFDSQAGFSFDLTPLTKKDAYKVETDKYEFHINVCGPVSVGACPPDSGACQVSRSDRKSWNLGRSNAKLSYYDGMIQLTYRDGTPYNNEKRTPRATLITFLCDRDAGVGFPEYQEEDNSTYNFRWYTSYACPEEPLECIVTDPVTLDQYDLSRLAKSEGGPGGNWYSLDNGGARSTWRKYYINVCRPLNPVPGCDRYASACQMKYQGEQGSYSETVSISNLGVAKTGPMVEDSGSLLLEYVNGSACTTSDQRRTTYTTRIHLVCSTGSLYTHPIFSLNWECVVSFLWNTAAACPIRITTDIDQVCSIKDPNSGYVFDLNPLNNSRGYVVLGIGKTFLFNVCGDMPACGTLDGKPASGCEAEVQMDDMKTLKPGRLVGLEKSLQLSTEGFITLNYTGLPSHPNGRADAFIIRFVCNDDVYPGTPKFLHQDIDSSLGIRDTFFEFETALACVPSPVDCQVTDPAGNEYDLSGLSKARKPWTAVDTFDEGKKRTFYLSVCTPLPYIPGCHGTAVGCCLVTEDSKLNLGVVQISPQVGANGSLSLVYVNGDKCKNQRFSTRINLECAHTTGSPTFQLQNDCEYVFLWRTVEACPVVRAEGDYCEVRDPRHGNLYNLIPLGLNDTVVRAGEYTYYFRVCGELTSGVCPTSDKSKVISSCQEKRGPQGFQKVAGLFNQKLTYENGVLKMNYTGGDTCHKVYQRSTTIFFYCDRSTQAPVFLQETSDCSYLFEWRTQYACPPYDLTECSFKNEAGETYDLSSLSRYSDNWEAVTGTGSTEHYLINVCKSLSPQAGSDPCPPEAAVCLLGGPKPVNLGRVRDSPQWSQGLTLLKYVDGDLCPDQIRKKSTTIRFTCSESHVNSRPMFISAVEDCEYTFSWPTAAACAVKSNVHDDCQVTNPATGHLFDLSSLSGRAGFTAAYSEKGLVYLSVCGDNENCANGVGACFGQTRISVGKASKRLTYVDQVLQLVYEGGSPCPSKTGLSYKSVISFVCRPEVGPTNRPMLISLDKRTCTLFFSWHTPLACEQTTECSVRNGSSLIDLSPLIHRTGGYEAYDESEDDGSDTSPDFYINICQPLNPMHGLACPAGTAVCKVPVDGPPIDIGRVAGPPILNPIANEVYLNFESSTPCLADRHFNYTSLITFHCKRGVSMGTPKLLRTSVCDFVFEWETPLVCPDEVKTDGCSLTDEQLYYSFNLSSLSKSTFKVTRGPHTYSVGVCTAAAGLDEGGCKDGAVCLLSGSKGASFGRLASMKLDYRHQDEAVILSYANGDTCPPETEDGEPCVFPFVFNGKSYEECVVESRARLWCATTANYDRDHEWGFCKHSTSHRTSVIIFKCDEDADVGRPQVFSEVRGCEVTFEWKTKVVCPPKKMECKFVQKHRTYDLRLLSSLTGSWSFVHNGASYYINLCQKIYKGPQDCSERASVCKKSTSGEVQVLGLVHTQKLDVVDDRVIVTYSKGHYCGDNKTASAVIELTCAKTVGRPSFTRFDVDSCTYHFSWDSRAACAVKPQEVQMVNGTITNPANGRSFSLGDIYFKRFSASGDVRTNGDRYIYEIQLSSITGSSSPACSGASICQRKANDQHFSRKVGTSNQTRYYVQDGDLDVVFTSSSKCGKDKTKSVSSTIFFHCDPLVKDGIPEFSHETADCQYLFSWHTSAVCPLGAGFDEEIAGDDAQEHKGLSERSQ

oxidized beta-glucuronidase conjugated with phosphopentamannose-hydrazine (enzyme)
percent of starting activity in the M6P elution fraction [1]: 5% | percent of starting activity in the flow through [1]: 19% | O.D. at 400 nm (beta-glucuronidase activity in column flow-through, unbound) [2]: 0.27 OD 400 nm | O.D. at 400 nm (beta-glucuronidase activity in final wash) [2]: 0 OD 400 nm | O.D. at 400 nm (beta-glucuronidase activity in M6P elution, bound) [3]: 0.06 OD 400 nm
